Source: patent US20080213252A1, “METHODS OF TREATING ITCH” (priority 2007, published 2008)

B1: recombinant mucunain: M. pruriens cysteine protease expressed in E. coli, refolded and activated (protein)
chain: DNLPESVDWRNESAVLPVKDQGNCGSCWAFSTIGAVEGINKIVTGDLISLSEQELVDCDTSYNQGCNGGLMDYAYEFIINNGGIDSEEDYPYRAVDGTCDQYRKNAKVVTIDSYEDVPANDELALKKAVANQPVSVAIEGGGREFQLYVSGVFTGRCGTALDHGVVAVGYGSVKGHDYWIVRNSWGASWGEEGYVRLERNLAKSRSGKCGIAIEPSYPIKNGANPPNPGPSPPSPVKPPNVCDNSYSCSDSATCCCIFEFQKYCMVWGCCPLEAATCCDDHYSCCPHEYPICNVRAGTCLKGKNNPFGVKALRRTPAKPHWAFGGKNKVNSA
B2: mucunain: cysteine protease, itch-inducing component of spicules from M. pruriens (cowhage) (protein)
chain: B1 chain
B3: papain: crystallized papain from Sigma, control cysteine protease (protein)
chain: IPEYVDWRQKGAVTPVKNQGSCGSCWAFSAVVTIEGIIKIRTGNLNEYSEQELLDCDRRSYGCNGGYPWSALQLVAQYGIHYRNTYPYEGVQRYCRSREKGPYAAKTDGVRQVQPYNEGALLYSIANQPVSVVLEAAGKDFQLYRGGIFVGPCGNKVDHAVAAVGYGPNYILIKNSWGTGWGENGYIRIKRGTGNSYGVCGLYTSSFYPVKN

What was measured:
PAR4 = experiment: PAR activation by cytoplasmic calcium release, ratiometric Fura-2 imaging, PAR4 transfected HeLa cells; assay type: cell-based, human; conditions: Fura-2 340:380 ratiometric imaging
Procedure: PAR activation observed by cytoplasmic calcium release—The four human PAR cDNAs were obtained from commercial sources and cloned into the pcDNA3.1 (−) vector (Invitrogen). HeLa cells were transfected with 10 μg of vector cDNA using Lipofectamine 2000 (Invitrogen) and cultured for two days in 96-well glass bottom plates at 30,000 cells/well. Cells were loaded with Fura-2 as follows. The medium was aspirated and replaced with 100 μl of complete DMEM containing 2 μM Fura-2 (Invitrogen) and kept at room temperature in the dark for 1 hr. The medium was again aspirated and each well received 90 μl of HEPES buffered saline (20 mM HEPES, 115 mM NaCl, 5.4 mM KCl, 2 mM CaCl2, 0.8 mM MgCl2, 13.8 mM glucose, pH 7.4). Plates were observed using a Zeiss Axiovert 200M microscope equipped with a filter wheel for monitoring excitation at 340 and 380 nm. Axiovision software, version 4.6 was used to analyze ratiometric calcium imaging of the cells. Ten μl of protease was applied approximately 20 seconds after the start of excitation. Images were taken every 5 seconds, beginning at time zero, for 3 minutes. The software was used to analyze the 37 images taken during each 3-minute period.

casein = conditions: 12.5% native casein-zymogram gel, 0.1 μg of each mucunain
Procedure: Zymogram—The zymogram of native and recombinant mucunain was carried out using a 12.5% native casein-zymogram gel as recommended by the supplier (Biorad). The zymogram gel was run with 0.1 μg of each of the mucunains, renatured and developed for protease activity overnight.

skin of volunteers = experiment: Psychophysics: itch sensation after insertion of native or reconstituted cowhage spicules into skin; assay type: in vivo; conditions: human volunteers; autoclaved spicules soaked in the substance and dried
Procedure: Reconstitution of spicules—Native spicules were inactivated by autoclaving for 1 hour and reconstituted with native and recombinant mucunains in the presence or absence of cysteine protease inhibitor, E64. Typically, 50 mg of inactivated spicules were mixed with 0.4 ml of 28 μM mucunain in a 2 ml microfuge tube, vortexed, and dried in a Speed-vac for 2 hours at room temperature. These spicules were then considered as ‘reconstituted’ with the protease alone. Spicules prepared in a similar manner but with E64 added at twice the concentration of mucunain, are considered reconstituted with the protease and the inhibitor.
Psychophysics—These protocols were approved by the Yale University Human Investigation Committee. A row of 10 cowhage spicules were lightly pasted to the flattened end of a Weck-Cel surgical strip, spaced at 1 mm, and applied parallel to the surface of the skin at the mid-volar forearm. […] Every 30 sec, subjects rated the magnitude of each of three qualities of sensation: Itch, pricking/stinging, and burning using the Generalized Labeled Magnitude Scale (Bartoshuk et al. 2004) that employs appropriately placed intensity descriptors of “none”, “barely detectable”, “weak”, “moderate”, “strong”, “very strong” and, at the top of the scale, “the strongest sensation imaginable.” Voltages derived from each subject's movements of a computer mouse that controlled a cursor on a visual representation of this scale were converted to numbers between 0 and 100 and plotted for each quality at successive intervals of 30 s up to 20 min after the insertion of cowhage. […]
The sensory effects of mucunain was further analyzed. […] 50 mg of the inactivated, dried spicules were then soaked in 0.05 ml of the filtered extract containing 0.07 mg of cysteine protease (as determined by non-interfering protein assay) with or without 3.5 micrograms of E-64. […]

[1] = native mucunain 0.9 μM, recombinant mucunain 2.7 μM; room temperature 1 hr; absorbance at 405 nm
Procedure: Chromogenic substrate assay—Native and recombinant mucunain protease activity were measured in a buffer containing 50 mM sodium acetate (pH 5.5), 2.5 mM EDTA, 2.5 mM DTT, and 250 μg/ml Z-Phe-Arg-pNA as the chromogenic substrate. After adding protease, the reaction was incubated at room temperature for 1 hr. Generation of the yellow product, p-nitroaniline, was assayed by measuring the absorbance at 405 nm. Papain served as a control cysteine protease. E64, an irreversible inhibitor of cysteine proteases, was used at a concentration of 10 M. Experiments were performed in triplicate and the error bars represent standard deviation.

Molecule | calcium influx in PAR4 transfected HeLa cells (PAR4) | protease activity in zymogram (casein) | itch evoked by substance loaded into inactivated spicules (skin of volunteers) | cleavage of chromogenic substrate Z-FR-pNA [1]
B1 | induced calcium influx | Protease activity was found | did elicit itch | –
B2 | – | – | evoked itch and nociceptive sensations | cleaves
B3 | induced calcium influx | – | produced itch | –
